Experimental data from publication PMC9387928.

Target: T1, ZccR (MerR-type regulator) (Streptococcus mutans UA159) (UniProt Q8DRZ5)
T1 sequence: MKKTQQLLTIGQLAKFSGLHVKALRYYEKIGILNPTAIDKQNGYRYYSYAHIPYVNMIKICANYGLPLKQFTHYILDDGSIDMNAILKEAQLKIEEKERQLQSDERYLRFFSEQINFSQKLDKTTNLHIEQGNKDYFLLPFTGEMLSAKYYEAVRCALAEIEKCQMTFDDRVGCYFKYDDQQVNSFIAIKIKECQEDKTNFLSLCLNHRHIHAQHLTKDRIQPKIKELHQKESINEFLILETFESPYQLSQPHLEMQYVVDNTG
Test: EMSA
Conditions: 10 mM Tris, 50 mM KCl, 1 ug poly dI-dC, 1 mM DTT, 5% glycerol, pH 7.5; 20 fmol probe in 20 ul; 6% native PAGE at 4 C; binding temperature not stated

CACAAATAGCTTGACCTTCCCTTTAAGGTATAGTTTATAGTTAAACTATAACAAGGTTTGCTAAAAAATGCAATGATTTCTGTATTGGAAAGGAGCCAATCATGTCTAAAGGTGATAAACAAAAGAAAAGGCTTCAAAAAATGACTTGGCTTTCAATATG (double strand) [zccE-zccR intergenic region (IGR), 160 bp]
binding: binds
